Values quoted from earlier work, collected in PMC8400902.
Read-outs that look alike come from different tables or passages of the source. Blank lines part the entries; values can stand above or below the substance they belong to.

Experiments:
[1] = target: Amyloid beta fibril (Homo sapiens) (UniProt P05067)
[2] = target: Amyloid beta (Homo sapiens) (UniProt P05067)
[3] = target: Amyloid beta (Homo sapiens) (UniProt P05067); remark: listed apart in the source

Chain of Agrin (O00468 1864-2068): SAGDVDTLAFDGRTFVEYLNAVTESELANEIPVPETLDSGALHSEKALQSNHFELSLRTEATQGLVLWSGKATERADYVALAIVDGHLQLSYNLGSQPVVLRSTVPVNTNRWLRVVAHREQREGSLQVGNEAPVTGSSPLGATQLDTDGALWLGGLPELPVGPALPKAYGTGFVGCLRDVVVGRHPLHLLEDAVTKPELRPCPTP
Chain of Serum amyloid P component (P02743 20-222): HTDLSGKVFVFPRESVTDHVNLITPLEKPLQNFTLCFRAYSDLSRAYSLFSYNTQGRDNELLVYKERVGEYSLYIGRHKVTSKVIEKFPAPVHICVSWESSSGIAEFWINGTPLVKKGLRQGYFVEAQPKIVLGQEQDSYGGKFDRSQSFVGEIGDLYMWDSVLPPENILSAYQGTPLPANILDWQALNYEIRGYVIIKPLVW
Chain of Haptoglobin (P00738 19-160): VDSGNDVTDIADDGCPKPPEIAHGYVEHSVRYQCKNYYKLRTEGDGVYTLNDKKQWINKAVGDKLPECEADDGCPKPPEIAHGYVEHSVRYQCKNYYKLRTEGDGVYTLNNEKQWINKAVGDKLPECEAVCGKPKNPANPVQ

- Kd [1]: 3.5 nM
Substance: Agrin (from UniProt O00468)

- Kd [2]: 6 nM
Substance: Serum amyloid P component (from UniProt P02743)

- Kd [3]: 300 nM
Substance: Haptoglobin (from UniProt P00738)
